system: Escherichia coli TOP10; test: shrunken log2 fold change of peptide-encoding DNA abundance (4.5 h post-induction vs induction); higher = less antimicrobial activity (less host growth inhibition); conditions: time post-induction: 4.5 h; library: site-saturation at positions 5, 18, 19, 20
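Note: peptides expressed intracellularly from a pBAD plasmid library in pooled LB shake-flask culture, induced with 0.3% L-arabinose, DNA abundance read by NGS, three biological replicates, DESeq2 with apeglm shrinkage.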

Sequence | shrunken log2 fold change
RRIRHRPPRLPRPRPRPWDDPRP | -0.0102
RRIRGRPPRLPRPRPRPAYHPRP | -0.141
RRIRCRPPRLPRPRPRPAVRPRP | 0.0848
RRIRHRPPRLPRPRPRPTGFPRP | 0.0428
RRIRDRPPRLPRPRPRPGADPRP | 0.655
RRIRMRPPRLPRPRPRPVAHPRP | 0.148
RRIRRRPPRLPRPRPRPSCCPRP | -0.0867
RRIRIRPPRLPRPRPRPNPDPRP | -0.659
RRIRIRPPRLPRPRPRPQYGPRP | 0.0914
RRIRSRPPRLPRPRPRPRTHPRP | 0.181
RRIRVRPPRLPRPRPRPRTGPRP | -0.0024
RRIRWRPPRLPRPRPRPQMVPRP | 0.0853
RRIRIRPPRLPRPRPRPQPGPRP | 0.116
RRIRRRPPRLPRPRPRPNSEPRP | 0.381
RRIRWRPPRLPRPRPRPLVHPRP | -0.11
RRIRRRPPRLPRPRPRPGWAPRP | 0.573
RRIRPRPPRLPRPRPRPNNDPRP | -0.544
RRIRMRPPRLPRPRPRPRNYPRP | -0.0232
RRIRMRPPRLPRPRPRPYACPRP | -0.0298
RRIRIRPPRLPRPRPRPNIAPRP | -0.407
RRIRRRPPRLPRPRPRPVQMPRP | 0.158
RRIRSRPPRLPRPRPRPKLDPRP | -0.037

Sequence | shrunken log2 fold change
RRIRYRPPRLPRPRPRPNSNPRP | -1.47
RRIRWRPPRLPRPRPRPIVPPRP | 0.138
RRIRHRPPRLPRPRPRPHGHPRP | 0.219
RRIRQRPPRLPRPRPRPTDVPRP | -0.194
RRIRDRPPRLPRPRPRPCYPPRP | -0.0894
RRIRHRPPRLPRPRPRPPTTPRP | -0.175
RRIRTRPPRLPRPRPRPCKIPRP | -0.03
RRIRQRPPRLPRPRPRPKLMPRP | -0.082
RRIRFRPPRLPRPRPRPFYQPRP | -0.537
RRIRYRPPRLPRPRPRPKWMPRP | -0.27
RRIRYRPPRLPRPRPRPLSTPRP | -0.29
RRIRDRPPRLPRPRPRPTRVPRP | 0.0497
RRIRTRPPRLPRPRPRPHASPRP | -0.033
RRIRTRPPRLPRPRPRPSRVPRP | 0.526
RRIRSRPPRLPRPRPRPDLLPRP | -0.0424
RRIRLRPPRLPRPRPRPDVIPRP | -0.161
RRIRARPPRLPRPRPRPDHFPRP | -0.148
RRIRFRPPRLPRPRPRPITYPRP | -0.472
RRIRLRPPRLPRPRPRPMWHPRP | 0.203
RRIRFRPPRLPRPRPRPPFTPRP | 0.0652
RRIRFRPPRLPRPRPRPCHLPRP | -0.0779
RRIRGRPPRLPRPRPRPKYGPRP | -0.111

Sequence | shrunken log2 fold change
RRIRNRPPRLPRPRPRPNRYPRP | -0.0433
RRIRVRPPRLPRPRPRPDMSPRP | -0.0318
RRIRKRPPRLPRPRPRPYPRPRP | -0.00783
RRIRVRPPRLPRPRPRPEFYPRP | -0.251
RRIRSRPPRLPRPRPRPRCVPRP | 0.116
RRIRHRPPRLPRPRPRPVIKPRP | -0.0701
RRIRERPPRLPRPRPRPCGLPRP | -0.0273
RRIRVRPPRLPRPRPRPYPIPRP | -0.0204
RRIRLRPPRLPRPRPRPVCIPRP | -0.498
RRIRHRPPRLPRPRPRPLCYPRP | -0.737
RRIRGRPPRLPRPRPRPGMLPRP | 0.498
RRIRCRPPRLPRPRPRPATCPRP | -0.0745
RRIRMRPPRLPRPRPRPCYCPRP | -0.289
RRIRPRPPRLPRPRPRPYWIPRP | -0.509
RRIRMRPPRLPRPRPRPGVYPRP | 0.104
RRIRPRPPRLPRPRPRPYNLPRP | -0.708
RRIRDRPPRLPRPRPRPPRYPRP | 0.244
RRIRTRPPRLPRPRPRPALDPRP | 0.196
RRIRMRPPRLPRPRPRPFLQPRP | -0.0339
RRIRMRPPRLPRPRPRPQDMPRP | -0.0638
RRIRKRPPRLPRPRPRPRVWPRP | 0.809
RRIRCRPPRLPRPRPRPTHLPRP | 0.232

Sequence | shrunken log2 fold change
RRIRCRPPRLPRPRPRPHLRPRP | 0.144
RRIRFRPPRLPRPRPRPKHTPRP | -0.0698
RRIRKRPPRLPRPRPRPVIIPRP | 0.0356
RRIRNRPPRLPRPRPRPYILPRP | -1.07
RRIRLRPPRLPRPRPRPPCGPRP | 0.191
RRIRYRPPRLPRPRPRPTEVPRP | -0.016
RRIRIRPPRLPRPRPRPDDWPRP | -0.0592
RRIRWRPPRLPRPRPRPCAHPRP | -0.107
RRIRCRPPRLPRPRPRPRSEPRP | 0.325
RRIRNRPPRLPRPRPRPFGLPRP | -0.231
RRIRERPPRLPRPRPRPQRCPRP | -0.0721
RRIRDRPPRLPRPRPRPYHLPRP | -0.0628
RRIRWRPPRLPRPRPRPFNKPRP | -0.441
RRIRNRPPRLPRPRPRPPADPRP | 0.595
RRIRQRPPRLPRPRPRPTMKPRP | -0.314
RRIRFRPPRLPRPRPRPVKFPRP | -0.0322
RRIRLRPPRLPRPRPRPNRFPRP | -0.404
RRIRNRPPRLPRPRPRPVQIPRP | 0.00489
RRIRMRPPRLPRPRPRPKSIPRP | 0.301
RRIRTRPPRLPRPRPRPKPLPRP | -0.0401
RRIRTRPPRLPRPRPRPNCDPRP | 1.31
RRIRKRPPRLPRPRPRPLKDPRP | -0.22

Sequence | shrunken log2 fold change
RRIRIRPPRLPRPRPRPRYNPRP | -0.588
RRIRFRPPRLPRPRPRPEVWPRP | 0.273
RRIRQRPPRLPRPRPRPPGAPRP | 0.757
RRIRQRPPRLPRPRPRPHGKPRP | -0.352
RRIRDRPPRLPRPRPRPNFFPRP | 0.144
RRIRMRPPRLPRPRPRPDWEPRP | 0.382
RRIRERPPRLPRPRPRPDSGPRP | -0.533
RRIRYRPPRLPRPRPRPNQFPRP | -0.533
RRIRYRPPRLPRPRPRPEGEPRP | 0.199
RRIRHRPPRLPRPRPRPEMLPRP | -0.32
RRIRLRPPRLPRPRPRPSIHPRP | -0.619
RRIRIRPPRLPRPRPRPPFTPRP | 0.0753
RRIRERPPRLPRPRPRPMYSPRP | -0.552
RRIRLRPPRLPRPRPRPWPYPRP | -0.127
RRIRIRPPRLPRPRPRPNNMPRP | -0.959
RRIRARPPRLPRPRPRPVAWPRP | 0.474
RRIRLRPPRLPRPRPRPDMGPRP | 0.0446
RRIRSRPPRLPRPRPRPWDCPRP | -0.00801
RRIRPRPPRLPRPRPRPGEYPRP | -0.207
RRIRWRPPRLPRPRPRPHTTPRP | 0.0145
RRIRVRPPRLPRPRPRPKTPPRP | 0.334

— the supplement of paper PMC9112550, “Optimization of the antimicrobial peptide Bac7 by deep mutational scanning” (BMC Biology, 2022)
